This note sets out measurements from patent US20240247066A1 (published 2024).

One may read the Kd as the concentration at which binding is half-saturated. Low readings indicate tighter binding, high ones weaker binding.

One assay addresses Trp2/H-2Kb (;mouse, biotin on the biotinylation tag (BirA)). Kind of assay: SPR. Background: Surface plasmon resonance follows binding to a sensor surface in real time, without labels.
The next assay concerns the target NY-ESO1/A2 (;human, UniProt A*02:01, biotin on the biotinylation tag (BirA)). Kind of assay: SPR.

B1: IgG2a #13 (antibody, V domains shown)
VH: EVLLQQSGPELVKPGASVKIPCKASGYTFTDYYMDWVKQSHGKSLEWIGLINPNNGGTVYNQKFKGKATLTVDKSSSAAYMEVRSLTSEDTAVYYCARKPYTGHPAWFAYWGQGTLVTVSA
VL: DIQVTQSSSSFSVSLGDRVTITCKASEDIYNRLAWYQQKPGNAPRLLISGATSLETGVPDRFSGSGSRKDYTLIITSLQTEDVATYYCQQYYAFPLTFGAGTKLELK
B1 registered a dissociation constant (Kd) with Trp2/H-2Kb of 2.5 nM.

B2: N5 (scFv)
chain: EVQLLESGGGLVQPGGSLRLSCAASGFTFSTYQMSWVRQAPGKGLEWVSGIVSSGGSTAYADSVKGRFTISRDNSKNTLYLQMNSLRAEDTAVYYCAGELLPFYGMDYWGQGTTVTVSQSELTQPRSVSGSPGQSVTISCTGTLRDVGGYNYVSWYQQHPGKAPKLIIHDVIERSSGVPDRFSGSKSGNTASLTISGLQAEDEADYYCWSAAMAYGVFGTGTDVTVL
In the assay with NY-ESO1/A2, B2 gave a dissociation constant (Kd) of 2 nM.
